Source: the supplement of paper PMC10724198
± gives the standard deviation of the averaged measurements.

How the values were obtained:
Saccharomyces cerevisiae [1] = assay: protein stability index of tFT-peptide fusion (C-terminal peptide) (PSI (0-1 scale)); higher = more stable (slower turnover)
Experimental: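 MPS profiling in S. cerevisiae of the tFT-X12 degron library: putative degron peptides plus stable controls, 12 aa, fused to the C-terminus of a sfGFP-mCherry timer. Cells are FACS-sorted into 8 mCherry/sfGFP bins and deep-sequenced. PSI runs from 0 (unstable) to 1 (stable). Backgrounds are wild type, das1Δ and doa10Δ at 30 °C, and wild type, das1Δ, cdc34-1 and cdc53-1 at 37 °C; 2-3 technical replicates each.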

Saccharomyces cerevisiae [2] = assay: as above; details: genetic background: wild type; temperature: 30 C
[3] = genetic background: cdc34-1, temperature: 37 C
[4] = genetic background: cdc53-1, temperature: 37 C
[5] = genetic background: das1 deletion, temperature: 30 C
[6] = genetic background: das1 deletion, temperature: 37 C
[7] = genetic background: doa10 deletion, temperature: 30 C
[8] = genetic background: wild type, temperature: 30 C
[9] = genetic background: wild type, temperature: 37 C
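Further: PSI is a weighted mean of sequencing reads over stability bins, variants kept only with over 10 reads, mCherry proximal and sfGFP distal, peptide attached via GGGS linker.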

Sequence	protein stability index (Saccharomyces cerevisiae [1]; [3])	protein stability index (Saccharomyces cerevisiae [1]; [4])	protein stability index (Saccharomyces cerevisiae [1]; [5])	protein stability index (Saccharomyces cerevisiae [1]; [6])	protein stability index (Saccharomyces cerevisiae [1]; [7])	protein stability index (Saccharomyces cerevisiae [1]; [8])	protein stability index (Saccharomyces cerevisiae [1]; [9])	protein stability index (Saccharomyces cerevisiae [2])
QCRLPRPPLSLP	0.676 ± 0.017	0.7414 ± 0.0062	0.651 ± 0.022	0.7354 ± 0.0058	0.672 ± 0.032	0.692 ± 0.009	0.693 ± 0.0099	0.436 ± 0.022
QPTGYFKLIIIK	0.317 ± 0.029	0.393 ± 0.072	0.3 ± 0.044	0.473 ± 0.047	0.38 ± 0.0083	0.323 ± 0.067	0.4476 ± 0.0013	0.3976 ± 0.0014
QPTPQSALAKHQ	0.655 ± 0.018	0.721 ± 0.04	0.6492 ± 0.005	0.731 ± 0.034	0.3327 ± 0.0025	0.337 ± 0.0054	0.544 ± 0.04	0.515 ± 0.04
RASLPSLFRSLL	0.951 ± 0.014	0.913 ± 0.048	0.804 ± 0.047	0.879 ± 0.019	0.8152 ± 0.008	0.807 ± 0.022	0.897 ± 0.011	0.811 ± 0.073
RAVLRFVMVWVL	0.499 ± 0.042	0.611 ± 0.024	0.466 ± 0.02	0.5789 ± 0.003	0.253 ± 0.024	0.244 ± 0.051	0.434 ± 0.022	0.317 ± 0.0068
RCTLFVNPVCVH	0.251 ± 0.018	0.304 ± 0.008	0.242 ± 0.034	0.402 ± 0.025	0.197 ± 0.011	0.241 ± 0.015	0.345 ± 0.017	0.349 ± 0.014
RGFIFFALWSFC	0.458 ± 0.0091	0.544 ± 0.021	0.375 ± 0.031	0.5317 ± 0.0053	0.334 ± 0.021	0.35 ± 0.016	0.498 ± 0.022	0.384 ± 0.08
RGFVVFCIPCFV	0.301 ± 0.042	0.326 ± 0.021	0.259 ± 0.042	0.428 ± 0.033	0.204 ± 0.0051	0.243 ± 0.03	0.401 ± 0.038	0.3392 ± 0.002
RGKVVRGLLFCA	0.619 ± 0.058	0.7188 ± 0.0062	0.624 ± 0.031	0.7327 ± 0.0057	0.137 ± 0.012	0.151 ± 0.0035	0.318 ± 0.077	0.3 ± 0.12
RGPAYATCHLLC	0.599 ± 0.041	0.7316 ± 0.0053	0.645 ± 0.012	0.75 ± 0.0094	0.119 ± 0.013	0.141 ± 0.022	0.257 ± 0.015	0.232 ± 0.028
RIAIRSAVICAS	0.306 ± 0.05	0.379 ± 0.0076	0.276 ± 0.028	0.487 ± 0.0057	0.101 ± 0.032	0.138 ± 0.038	0.154 ± 0.02	0.183 ± 0.028
RIIKIRAISINL	0.575 ± 0.062	0.66 ± 0.065	0.523 ± 0.023	0.607 ± 0.061	0.454 ± 0.03	0.468 ± 0.016	0.609 ± 0.03	0.501 ± 0.022
RILKLPGHVNDV	0.6842 ± 0.0067	0.711 ± 0.031	0.654 ± 0.043	0.697 ± 0.026	0.652 ± 0.065	0.65 ± 0.027	0.69 ± 0.019	0.7167 ± 0.005
RIRLYWVLRRLG	0.595 ± 0.008	0.693 ± 0.013	0.571 ± 0.023	0.758 ± 0.0098	0.0772 ± 0.023	0.0992 ± 0.031	0.129 ± 0.0085	0.183 ± 0.0066
RISGSIVVRKRS	0.673 ± 0.032	0.738 ± 0.011	0.642 ± 0.015	0.722 ± 0.019	0.425 ± 0.0081	0.45 ± 0.033	0.6333 ± 0.0061	0.554 ± 0.1
RLPRILVLVCLF	0.231 ± 0.0089	0.318 ± 0.025	0.228 ± 0.04	0.383 ± 0.00011	0.169 ± 0.0018	0.163 ± 0.022	0.25 ± 0.0094	0.237 ± 0.017
RLPSSNVRYWVS	0.637 ± 0.037	0.729 ± 0.012	0.64 ± 0.012	0.751 ± 0.032	0.1599 ± 0.001	0.183 ± 0.012	0.394 ± 0.037	0.235 ± 0.035
RNDCAYHVLQIV	0.607 ± 0.016	0.722 ± 0.054	0.646 ± 0.015	0.7115 ± 0.0031	0.181 ± 0.0022	0.202 ± 0.035	0.381 ± 0.0042	0.228 ± 0.0084
RNTLLFKRILHI	0.671 ± 0.028	0.706 ± 0.017	0.637 ± 0.032	0.77 ± 0.018	0.0865 ± 0.024	0.108 ± 0.045	0.154 ± 0.0032	0.165 ± 0.059
RPPSLVFLFLLT	0.551 ± 0.062	0.587 ± 0.021	0.441 ± 0.048	0.598 ± 0.01	0.401 ± 0.026	0.395 ± 0.015	0.573 ± 0.023	0.441 ± 0.032
